Assays:
[1] = biological target: Truncated P-domain of GNNV capsid protein (residues 214-338) (orange-spotted grouper nervous necrosis virus (OSGNNV)); assay: SEC; purified P-domain on Superdex 75 10/300 GL in the presence of Ca2+, against protein standards
[2] = biological target: Truncated P-domain of GNNV capsid protein (residues 214-338) (orange-spotted grouper nervous necrosis virus (OSGNNV)); assay: crystal structure; truncated P-domain (214-338), 1.2 Å; crystals from 0.2 M Ca acetate, 0.1 M MES (pH 6.5), 10% PEG8000
[3] = biological target: N-ARM deletion mutant of GNNV capsid protein (residues 35-338) (orange-spotted grouper nervous necrosis virus (OSGNNV)); assay: SDS-PAGE; oligomerization of three CPs in solution, bands compared to protein standards
[4] = biological target: delta-P-domain mutant of GNNV capsid protein (residues 35-217) (orange-spotted grouper nervous necrosis virus (OSGNNV)); assay: crystal structure; T = 1 delta-P-domain mutant (35-217), 3.1 Å; crystals from 0.2 M MgCl2, 0.1 M HEPES-Na (pH 7.5), 30% PEG400
[5] = biological target: delta-P-domain mutant of GNNV capsid protein (residues 35-217) (orange-spotted grouper nervous necrosis virus (OSGNNV)); assay: SDS-PAGE; oligomerization of three CPs in solution, bands compared to protein standards
[6] = biological target: Grouper nervous necrosis virus capsid protein, full length (338 residues) (orange-spotted grouper nervous necrosis virus (OSGNNV)); assay: as above

Substance: Truncated P-domain of GNNV capsid protein (residues 214-338) (domain or fragment)
- stoichiometry N [1]: 3
- stoichiometry N [2]: 3

Substance: N-ARM deletion mutant of GNNV capsid protein (residues 35-338) (domain or fragment)
- stoichiometry N [3]: 3

Substance: delta-P-domain mutant of GNNV capsid protein (residues 35-217) (domain or fragment)
- stoichiometry N [4]: 60
- stoichiometry N [5]: 2

Substance: Grouper nervous necrosis virus capsid protein, full length (338 residues) (natural protein)
- stoichiometry N [6]: 3
